T1: IL-3 receptor (human, UniProt P26951)
T1 sequence: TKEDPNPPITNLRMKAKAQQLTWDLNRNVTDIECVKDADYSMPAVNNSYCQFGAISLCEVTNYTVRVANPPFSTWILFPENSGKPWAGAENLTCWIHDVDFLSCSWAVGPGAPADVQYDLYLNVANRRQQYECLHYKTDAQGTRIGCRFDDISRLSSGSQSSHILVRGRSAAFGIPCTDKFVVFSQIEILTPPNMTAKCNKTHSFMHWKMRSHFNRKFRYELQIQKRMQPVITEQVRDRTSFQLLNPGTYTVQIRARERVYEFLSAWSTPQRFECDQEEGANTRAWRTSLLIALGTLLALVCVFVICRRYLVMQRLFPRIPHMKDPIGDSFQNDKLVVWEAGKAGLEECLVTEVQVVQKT

B1: (1-133)hIL-3 (ligand)
chain: APMTQTTSLKTSWVNCSNMIDEIITHLKQPPLPLLDFNNLNGEDQDILMENNLRRPNLEAFNRAVKSLQNASAIESILKNLLPCLPLATAAPTRHPIHIKDGDWNEFRRKLTFYLKTLENAQAQQTTLSLAIF
B2: pMON5975 (Met-15-125hIL-3) having an M4 substitution (ligand)
chain: MNCSNMIDEIITHLKQPPLPLLDFNNLTDDEGPILMENNLRRPNLEAFNRAVKSLQNASAIESILKNLLPCLPLATAAPTRHPIHIKDGDWNEFRRKLTFYLKTLENAQAQQ
B3: pMON5963 (Met-15-125hIL-3 Ala 101) having an M9 substitution (ligand)
chain: MNCSNMIDEIITHLKQPPLPLLDFNNLNGEDQDILMENNLRRPNLEAFNRAVKSLQNASAIKSNLQKLNSCLPLATAAPTRHPIHIKAGDWNEFRRKLTFYLKTLENAQAQQ
B4: pMON5972 (Met-15-125hIL-3) having an M6 substitution (ligand)
chain: MNCSNMIDEIITHLKQPPLPLLDFNNLNGEDQDILMENNFRRVNLSKFVEAVKSLQNASAIESILKNLLPCLPLATAAPTRHPIHIKDGDWNEFRRKLTFYLKTLENAQAQQ
B5: pMON5961 (Met-15-125hIL-3) having an M12 substitution (ligand)
chain: B4 chain with F40L, V43P, S46E, K47A, V49N, E50R, P83G, I84V, H85F, K87R
B6: pMON5960 (Met-15-125hIL-3) having an M11 substitution (ligand)
chain: B4 chain with F40L, V43P, S46E, K47A, V49N, E50R, P79S, T80A, R81L, H82P
B7: pMON5980 (Met-Ala-15-125hIL-3) having an M1 substitution (ligand)
chain: MANCSSIVKEIIGKLPQPPLPLLDFNNLNGEDQDILMENNLRRPNLEAFNRAVKSLQNASAIESILKNLLPCLPLATAAPTRHPIHIKDGDWNEFRRKLTFYLKTLENAQAQQ
B8: pMON5977 (Met-15-125hIL-3) having an M3 substitution (ligand)
chain: MNCSNMIDEIITHLKQPPLPLLEPELKNGEDQDILMENNLRRPNLEAFNRAVKSLQNASAIESILKNLLPCLPLATAAPTRHPIHIKDGDWNEFRRKLTFYLKTLENAQAQQ
B9: pMON5962 (Met-15-125hIL-3) having an M10 substitution (ligand)
chain: B8 chain with E23D, P24F, E25N, L26N, K27L, L74T, A75S, T76A, A77N, A78D
B10: pMON5970 (Met-15-125hIL-3) having an M5 substitution (ligand)
chain: B8 chain with E23D, P24F, E25N, L26N, K27L, I34S, M36R, E37N, N38K, N39S
B11: pMON5979 (Met-15-125hIL-3 ALA 101) having an M8 substitution (ligand)
chain: MNCSNMIDEIITHLKQPPLPLLDFNNLNGEDQDILMENNLRRPNLEAFNRAVKSLQPEDRYVIESILKNLLPCLPLATAAPTRHPIHIKAGDWNEFRRKLTFYLKTLENAQAQQ
B12: pMON5974 (Met-15-125hIL-3 del aa29-35) having the M2 deletion shown in FIG. 19 (ligand)
chain: MNCSNMIDEIITHLKDFNNLNGEDQDILMENNLRRPNLEAFNRAVKSLQNASAIESILKNLLPCLPLATAAPTRHPIHIKDGDWNEFRRKLTFYLKTLENAQAQQ
B13: pMON5968 (Met-15-125hIL-3) having an M13 substitution (ligand)
chain: MNCSNMIDEIITHLKQPPLPLLDFNNLNGEDQDILMENNLRRPNLEAFNRAVKSLQNASAIESILKNLLPCLPLATAAPTRHPIHIKDLDEFRRKLTFYLKTLENAQAQQ
B14: pMON5973 (Met-15-125hIL-3) having an M7 substitution (ligand)
chain: MNCSNMIDEIITHLKQPPLPLLDFNNLNGEDQDILMENNLRRPNLEAFNRSQGEVDNASAIESILKNLLPCLPLATAAPTRHPIHIKDGDWNEFRRKLTFYLKTLENAQAQQ

Changes are numbered by the printed parent chain.

The first assay deals with IL-3 receptor (human) (UniProt P26951). Description: competition with iodinated hIL-3 ligand (pMON 5966) on AML 193 1.3.9 cells; this is the reference itself.
The molecule B1 came in with an IL-3 Receptor Binding Activity (relative to native hIL-3) (relative to native hIL-3) of 1.

Another assay has the same target. Description: competition with iodinated hIL-3 ligand (pMON 5966) on AML 193 1.3.9 cells.
Regarding B2, the IL-3 Receptor Binding Activity (relative to native hIL-3) (relative to native hIL-3) was under 0.01.

As to B3, the IL-3 Receptor Binding Activity (relative to native hIL-3) (relative to native hIL-3) is 1.32.

Take B4: the IL-3 Receptor Binding Activity (relative to native hIL-3) (relative to native hIL-3) was determined as 0.08.

B5 yielded an IL-3 Receptor Binding Activity (relative to native hIL-3) (relative to native hIL-3) of 1.05.

The molecule B6 displayed an IL-3 Receptor Binding Activity (relative to native hIL-3) (relative to native hIL-3) of under 0.01.

In the case of B7, the IL-3 Receptor Binding Activity (relative to native hIL-3) (relative to native hIL-3) was under 0.01.

In the case of B8, the IL-3 Receptor Binding Activity (relative to native hIL-3) (relative to native hIL-3) was 0.19.

In turn, B9 yielded an IL-3 Receptor Binding Activity (relative to native hIL-3) (relative to native hIL-3) of 0.81.

Consider B10, for which the IL-3 Receptor Binding Activity (relative to native hIL-3) (relative to native hIL-3) is under 0.01.

For a further assay, the target named is T1, IL-3 receptor. The assay is described as above. The method, then: These cells were further selected using biotin conjugated hIL-3 and FITC-avidin for repetitive fluorescence activated cell sorting (FACS) and were designated AML 193 1.3.9. This line was grown in IMDM supplemented with 5% FBS and 40 μM beta-mercaptoethanol and human IL-3 (1 to 4 ng/mL). The HL-60 cell line was obtained from ATCC and grown in RPMI 1640, 10% FBS and 40 μM beta-mercaptoethanol. Ligand for IL-3 receptor assays was derived from an E. coli expression vector encoding full length hIL-3 molecule (amino acids 1 to 133) having a 14 amino acid N-terminal extension. ([…][SEQ ID NO: 119]; designated as pMON 5966, est. MW 16,976). This construct contained two additional tyrosines which were essential for iodination to high-specific radioactivity without loss of biological activity. This ligand was radiolabeled with iodine-125 using an insoluble lactoperoxidase method (®Enzymobeads) and used following HPLC purification. […] Ligand for GM-CSF receptor assays was prepared by radiolabelling native GM-CSF with iodine-125 using the IODO-GEN method (Pierce Chemical) according to manufacturer's specifications.
For IL-3 receptor assays, AML 193 1.3.9 cells were incubated overnight in medium without growth factor. On the day of the assay the cells were washed 3 times with Hanks balanced salt solution, resuspended in assay buffer (IMDM, 5% FBS, 40 μM 2-ME and 0.1% BSA) and counted using a hemacytometer. Assay tubes contained the test compounds or inhibitors under study, 0.2% sodium azide, iodinated hIL-3 ligand (pMON 5966), 5–10×10^6 cells, and buffer in a total volume of 100 μL. Unlabelled hIL-3 (250 nM) was used to define non-specific binding, and each assay point was set up in triplicate. After incubation with gentle orbital agitation at 200 rpm for two hours at room temperature, 1 mL of ice-cold medium was added and the binding reaction was immediately terminated by centrifugation. The supernatant was removed by aspiration, and the tip of the tube containing the cell pellet was cut off and counted in a Micromedic gamma counter.
Regarding B11, the “IL-3 Receptor Binding Activity (relative to native hIL-3)” value was 1.21 relative to native hIL-3.

B12: the “IL-3 Receptor Binding Activity (relative to native hIL-3)” value is ≤ 0.01 relative to native hIL-3 and the binding result is “no binding”.

Take B13: the “IL-3 Receptor Binding Activity (relative to native hIL-3)” value was 0.25 relative to native hIL-3.

A further assay concerns the target T1, IL-3 receptor. Put plainly: cell-based or functional assay.
For the molecule B14, the “Growth Factor Activity (AML 193 1.3 proliferation, 3H-thymidine; Relative Biological Activity)” value was 0.2 relative to native hIL-3 and the “Leukotriene Stimulating Activity (IL-3 mediated sulfidoleukotriene release from human mononuclear cells; Relative Biological Activity)” value was ≤ 0.01 relative to native hIL-3.

Another assay concerns the target IL-3 receptor (human) (UniProt P26951).
Experiment: not given
In turn, B2 gave a Growth Factor Activity (AML 193 1.3 proliferation, 3H-thymidine; Relative Biological Activity) (relative to native hIL-3) of 0.04 and a Leukotriene Stimulating Activity (IL-3 mediated sulfidoleukotriene release from human mononuclear cells; Relative Biological Activity) (relative to native hIL-3) of under 0.01.

B1 yielded a Growth Factor Activity (AML 193 1.3 proliferation, 3H-thymidine; Relative Biological Activity) (relative to native hIL-3) of 1 and a Leukotriene Stimulating Activity (IL-3 mediated sulfidoleukotriene release from human mononuclear cells; Relative Biological Activity) (relative to native hIL-3) of 1.

With B3, the Growth Factor Activity (AML 193 1.3 proliferation, 3H-thymidine; Relative Biological Activity) (relative to native hIL-3) was 5.01 and the Leukotriene Stimulating Activity (IL-3 mediated sulfidoleukotriene release from human mononuclear cells; Relative Biological Activity) (relative to native hIL-3) turned out to be 12.9.

Molecule B11 showed a Growth Factor Activity (AML 193 1.3 proliferation, 3H-thymidine; Relative Biological Activity) (relative to native hIL-3) of 7.94 and a Leukotriene Stimulating Activity (IL-3 mediated sulfidoleukotriene release from human mononuclear cells; Relative Biological Activity) (relative to native hIL-3) of 0.46.

For B4, the Growth Factor Activity (AML 193 1.3 proliferation, 3H-thymidine; Relative Biological Activity) (relative to native hIL-3) is 0.2 and the Leukotriene Stimulating Activity (IL-3 mediated sulfidoleukotriene release from human mononuclear cells; Relative Biological Activity) (relative to native hIL-3) was determined as 0.15.

As to B5, the Growth Factor Activity (AML 193 1.3 proliferation, 3H-thymidine; Relative Biological Activity) (relative to native hIL-3) amounted to 0.5 and the Leukotriene Stimulating Activity (IL-3 mediated sulfidoleukotriene release from human mononuclear cells; Relative Biological Activity) (relative to native hIL-3) was found to be 3.63.

B6 displayed a Growth Factor Activity (AML 193 1.3 proliferation, 3H-thymidine; Relative Biological Activity) (relative to native hIL-3) of 0.13 and a Leukotriene Stimulating Activity (IL-3 mediated sulfidoleukotriene release from human mononuclear cells; Relative Biological Activity) (relative to native hIL-3) of 0.1.

For the molecule B12, the Growth Factor Activity (AML 193 1.3 proliferation, 3H-thymidine; Relative Biological Activity) (relative to native hIL-3) is 0.08 and the Leukotriene Stimulating Activity (IL-3 mediated sulfidoleukotriene release from human mononuclear cells; Relative Biological Activity) (relative to native hIL-3) is under 0.01.

B7 registered a Growth Factor Activity (AML 193 1.3 proliferation, 3H-thymidine; Relative Biological Activity) (relative to native hIL-3) of 0.03 and a Leukotriene Stimulating Activity (IL-3 mediated sulfidoleukotriene release from human mononuclear cells; Relative Biological Activity) (relative to native hIL-3) of under 0.01.

In turn, B8 came in with a Growth Factor Activity (AML 193 1.3 proliferation, 3H-thymidine; Relative Biological Activity) (relative to native hIL-3) of 3.98 and a Leukotriene Stimulating Activity (IL-3 mediated sulfidoleukotriene release from human mononuclear cells; Relative Biological Activity) (relative to native hIL-3) of 0.31.

Turning to B9, the Growth Factor Activity (AML 193 1.3 proliferation, 3H-thymidine; Relative Biological Activity) (relative to native hIL-3) amounted to 1.26 and the Leukotriene Stimulating Activity (IL-3 mediated sulfidoleukotriene release from human mononuclear cells; Relative Biological Activity) (relative to native hIL-3) was 10.7.

B10 registered a Growth Factor Activity (AML 193 1.3 proliferation, 3H-thymidine; Relative Biological Activity) (relative to native hIL-3) of 0.04 and a Leukotriene Stimulating Activity (IL-3 mediated sulfidoleukotriene release from human mononuclear cells; Relative Biological Activity) (relative to native hIL-3) of under 0.01.

Regarding B13, the Growth Factor Activity (AML 193 1.3 proliferation, 3H-thymidine; Relative Biological Activity) (relative to native hIL-3) is 0.06 and the Leukotriene Stimulating Activity (IL-3 mediated sulfidoleukotriene release from human mononuclear cells; Relative Biological Activity) (relative to native hIL-3) worked out at 0.59.
